Columns and labels:
[1] = biological target: human FcγRIIa R (allotype R131) extracellular domain (human) (UniProt P12318); test: SPR Biacore 8K+; KD for FcγRIIb divided by KD for this FcγR
[2] = biological target: human FcγRIIa R (allotype R131) extracellular domain (human) (UniProt P12318); test: SPR Biacore 8K+, 25 C, antibody captured, FcγR as analyte, 1:1 Langmuir model
[3] = biological target: human FcγRIIa R (allotype R131) extracellular domain (human) (UniProt P12318); test: SPR Biacore 8K+; KD of G1d divided by KD of this antibody

EGL-GASDALIE (H240-GASDALIE/L73-k0) (antibody), sequence (heavy): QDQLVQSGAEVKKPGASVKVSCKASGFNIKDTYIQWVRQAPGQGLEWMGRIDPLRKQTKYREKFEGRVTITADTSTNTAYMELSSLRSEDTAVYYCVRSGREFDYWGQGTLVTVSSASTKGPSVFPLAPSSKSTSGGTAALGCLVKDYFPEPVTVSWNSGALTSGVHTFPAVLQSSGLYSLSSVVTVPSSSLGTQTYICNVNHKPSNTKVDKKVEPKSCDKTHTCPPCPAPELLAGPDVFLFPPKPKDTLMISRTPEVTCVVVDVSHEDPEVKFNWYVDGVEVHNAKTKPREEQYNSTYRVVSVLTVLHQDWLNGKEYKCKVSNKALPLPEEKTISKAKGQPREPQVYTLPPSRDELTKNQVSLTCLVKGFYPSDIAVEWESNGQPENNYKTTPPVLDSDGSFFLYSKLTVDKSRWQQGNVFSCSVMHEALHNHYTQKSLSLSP
EGL-GASDALIE (H240-GASDALIE/L73-k0) (antibody), sequence (light): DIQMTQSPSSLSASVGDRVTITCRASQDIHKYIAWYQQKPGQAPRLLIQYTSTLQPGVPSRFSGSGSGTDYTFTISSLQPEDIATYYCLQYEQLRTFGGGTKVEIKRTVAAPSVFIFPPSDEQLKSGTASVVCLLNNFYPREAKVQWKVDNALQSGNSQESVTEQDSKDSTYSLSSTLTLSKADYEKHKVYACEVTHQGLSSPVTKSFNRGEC
human FcγRIIa R (allotype R131) extracellular domain (human), sequence (P12318 34-217 H167R): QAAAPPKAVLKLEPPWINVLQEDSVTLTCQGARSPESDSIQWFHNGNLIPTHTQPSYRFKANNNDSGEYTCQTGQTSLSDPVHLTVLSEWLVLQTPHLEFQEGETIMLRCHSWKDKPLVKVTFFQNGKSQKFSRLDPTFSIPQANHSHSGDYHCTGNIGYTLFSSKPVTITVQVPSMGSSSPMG
EGL-afucosyl (H240-G1d/L73-k_glycomab) (antibody), sequence (heavy): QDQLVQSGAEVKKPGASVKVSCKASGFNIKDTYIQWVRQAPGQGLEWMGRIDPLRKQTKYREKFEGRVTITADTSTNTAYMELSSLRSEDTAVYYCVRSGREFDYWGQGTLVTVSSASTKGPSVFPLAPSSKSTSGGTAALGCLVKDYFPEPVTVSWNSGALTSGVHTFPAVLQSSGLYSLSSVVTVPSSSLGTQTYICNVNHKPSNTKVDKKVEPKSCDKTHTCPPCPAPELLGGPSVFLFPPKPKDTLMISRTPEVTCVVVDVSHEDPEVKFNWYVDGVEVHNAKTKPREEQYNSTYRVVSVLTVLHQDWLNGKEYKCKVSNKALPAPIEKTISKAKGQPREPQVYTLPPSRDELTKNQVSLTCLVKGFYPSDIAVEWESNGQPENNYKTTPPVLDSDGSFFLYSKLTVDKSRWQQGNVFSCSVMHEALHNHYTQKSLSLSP
EGL-afucosyl (H240-G1d/L73-k_glycomab) (antibody), sequence (VL): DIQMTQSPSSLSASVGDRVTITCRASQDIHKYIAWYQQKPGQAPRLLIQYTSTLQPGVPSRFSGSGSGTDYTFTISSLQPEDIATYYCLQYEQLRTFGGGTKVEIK

## EGL-GASDALIE (H240-GASDALIE/L73-k0) (antibody)
[1]
  A/I ratio (KD for FcγRIIb divided by KD for each FcγR): 16.5
[2]
  Kd: 0.161 µM
[3]
  Relative value to KD between G1d and hFcγRs: 10.3 times

## EGL-afucosyl (H240-G1d/L73-k_glycomab) (antibody)
[1]
  A/I ratio (KD for FcγRIIb divided by KD for each FcγR): 6
[2]
  Kd: 0.946 µM
[3]
  Relative value to KD between G1d and hFcγRs: 1.8 times
